# Measured values: the nanobody polyreactivity screen of Harvey et al. (2022)
# Experiment: yeast display, Sf9 membrane polyspecificity reagent, FACS + sequencing; frameworks hold sequencing errors
# Procedure, shortened: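 After 36–48 hours of galactose induction, yeast (Saccharomyces cerevisiae BJ5465) displaying a synthetic nanobody library were stained at 4 °C for 1 hour with 10% biotinylated, detergent-solubilized Sf9 membrane reagent. Streptavidin microbeads enriched the stained cells before FACS sorting into low and high (top ~1%) gates on anti-HA and streptavidin fluorescence. Each clone's polyreactivity label reflects its gate of origin.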
row,Sequence,polyreactivity (PSR sort gate)
1,QVQLVESGGGLVQAGGSLRLSCAASGSTFDIYAMGWYRQAPGKERKLVAVISGGDGSTYYADSVKGRFTISRDNAKNTVYLQMNSLKPEDTAVYYCEYDYWGQGTQVTVSS,low polyreactivity
2,QVQLVESGGGLVQAGGSLRLSCAASGSTFDIYVMGWYRQAPGKERELVAAISRVGNTSYADSVKGRFTISRDNAKNTVYLQMNRLNPEDTAVYYCAADRADFFVIRTIDPYDYWGQGTQVTVSS,low polyreactivity
3,QVQLVESGGGLVQAGGSLRLSCAASGSTFDLYAMGWYRQATGKERELVAAISRSGGSTYYADSVKGRFTISRDNEKNTVYLQMNSLKPDDTAVYYCNARWPLGVSRGGMGYWGQGTQVTVSS,high polyreactivity
4,QVQLVESGGGLVQAGGSLRLSCAASGSTFDPNAKGWYRQEPGKERELVAAISKSGGRTYYADSVKGRFTISRDNAKNTVYLQMNSLKPEDTAVYYCNARFGSRYNFFGLRYNYWGLGTQVTVSS,high polyreactivity
5,QVQLVESGGGLVQAGGSLRLSCAASGSTFDPYAMGWYRQAPGIERELVAAITGRGGSTYYADSVKGRFTISRDNAKNTVYLQMNSLKPEDTAVYYCNAEGDKRRDRYDYWGQGSQVTVSS,low polyreactivity
6,QVQLVESGGGLVQAGGSLRLSCAASGSTFDRNAMGWYRQAPGKERELVASITWTGGSTYYADSVKGRFTISRDNAKNTVYLQMNSLKPEDTAVYYCNADLLYLDYLYGLDYWGQGTQVTVSS,high polyreactivity
7,QVQLVESGGGLVQAGGSLRLSCAASGSTFDRNVMGWYRQAPGKERELVAAISRVSSTNYADSVKGRFTISRDNAKNTVYLQMISLKPEDTAVYYCAVDNISNWAVENDYWGQGTQVTVSS,low polyreactivity
8,QVQLVESGGGLVQAGGSLRLSCAASGSTFDRYAMGWYRQAPGKERELVASISRSGGNTYYADSVKGRFTISRDNAKNTVYVPMNSLKPDDTAGYYSNKPIGRYSRNRYGYWGQATQVTVSS,high polyreactivity
9,QVQLVESGGGLVQAGGSLRLSCAASGSTFDRYGMGWYRQAPGKERELVAAISWSGGSTYYADSVKGRFTFSRDNAKNTVYLQMNSLKPEDTAVYYCNAVLYRFAYNYWGQGTQVTVSS,low polyreactivity
10,QVQLVESGGGLVQAGGSLRLSCAASGSTFDRYTMGWYRQAPGKERELVAAISESDGSTYYADSVKGRFTISRDNAKNTVYLLMNSLKPEDTAVYFCAAEWTHYWWYQYDFWGQGTQVTVSS,high polyreactivity
11,QVQLVESGGGLVQAGGSLRLSCAASGSTFDSNTMGWYRQAPGKERELVAAITVSGGSTHYADSVKGRFTNSRYNAKNTVYLQMNSLKPEDTAVYYCNRRSYGYGAFSGYDYWGQGTQVTVSS,low polyreactivity
12,QVQLVESGGGLVQAGGSLRLSCAASGSTFDSYAIGWYRQAPGKERELVAGISIVGSTNYADSVKGRFTISPDNAKNTVYLQLNSLKPEDTAVYYCNAGYFRGSNAIKVRLTYDHWGQGTQVTVSS,low polyreactivity
13,QVQLVESGGGLVQAGGSLRLSCAASGSTFDSYAMGWYRQAPGKERELVAAISRSGGRTYYADSVKGRFTISRDNAKNTVYLQMNSLKPEDTAVYYCAAPVKVGHSLSGGDYWGQGTQVTVSS,high polyreactivity
14,QVQLVESGGGLVQAGGSLRLSCAASGSTFDTYAMGWYRQAPGKERELVAAISRSGTSTYYADSVKGRFTISRDNAKNTVYLQMNSLKPEDTAVYFCNNPWYSYRYGGVGYGYWGQGTQVTVSS,low polyreactivity
15,QVQLVESGGGLVQAGGSLRLSCAASGSTFDYNAMGWYRQAPGKERELVAAISSGGRTYYADSVKGRFTISRDNAKNTVYLQMNSLKPEDTAVYYCAKARTLRYDSWGQGTQVTVSS,low polyreactivity
16,QVQLVESGGGLVQAGGSLRLSCAASGSTFDYYAMGWNRQAPGKERDLVAASTSGSSTYYADSVKGRITISRDNAQNTVYLEMNSLKPEDTAVYYCAARSVYGSSFLSYGYWGQGTQLTVSS,high polyreactivity
17,QVQLVESGGGLVQAGGSLRLSCAASGSTFDYYAMGWYRQAPGKERDLVAGITSDGSTDYADSVKGRFTISRDNAKNTVYLQMNSLKPEDTAVYYCAVDGDPVFYTTYYYSYYYWGQGTQVTVSS,low polyreactivity
18,QVQLVESGGGLVQAGGSLRLSCAASGSTFDYYAMGWYRQAPGKERELVAAIRWSSGRTYYADSVKGRFTISRDNAKNTVYLQMNSLKPEDTAVYYCAARARGRYKRVALDYWGQGTQVTVSS,high polyreactivity
19,QVQLVESGGGLVQAGGSLRLSCAASGSTFDYYAMGWYRQAPGKERELVAAISSTDGSTFYADSVKGRFTISRDNAKNTVYLQMNSLKPEDTAVYYCAVVGYYYPWPNGYDYWGQGTQVTVSS,low polyreactivity
20,QVQLVESGGGLVQAGGSLRLSCAASGSTFDYYTMGGYRQAPGKERELVAAISSSGGSTYYADSVKGRFTISRDNAKNNVYLQMISLKPEDTAVYYCAADASPYGDVYDYWGQGTQVTVSS,low polyreactivity
21,QVQLVESGGGLVQAGGSLRLSCAASGSTFDYYTMGWYRQAPGKERELVAAISSSGGSTYYADSVKGRFTISRDNAKNTVYLQMNSLKPEDTAVYYCAADPSPYGDEYDYWGQGTQVTVSS,low polyreactivity

row,Sequence,polyreactivity (PSR sort gate)
1,QVQLVESGGGLVQAGGSLRLSCAASGSTFDYYTMGWYRQAPGKERELVAAITSGGSTNYADSVKGRFTISRDNAKNTVYLQMNSLKPEDTAVYYCAADEWYNNYNCTTYGPEYDSWGQGTQVTVSS,low polyreactivity
2,QVQLVESGGGLVQAGGSLRLSCAASGSTFEANAKGWYRQAPGKERELVAVITWTGGSTYYADSVKGRFTISRDYAKNTVYLQMNSLKPEDTAVYYCAAKFHRFAWYSHYDYWGQGTQVTVSS,low polyreactivity
3,QVQLVESGGGLVQAGGSLRLSCAASGSTFEAYAMGWYRQAPGKERELVAAIRSSGSTSYADSVKGRFTISRDNAKNTVYLQMNSLKPVDTAVYYCAARVRGYPRYKRDYWGQGTQVTVSS,high polyreactivity
4,QVQLVESGGGLVQAGGSLRLSCAASGSTFEAYAMGWYRQAPGKERELVAAITWSSGSTYYADSVKGRFTISRDNAKNTVYLQMNSLKPEDTAVYYCNKDWLAYDSLRVPSTIAFDYWGQGTQVTVSS,low polyreactivity
5,QVQLVESGGGLVQAGGSLRLSCAASGSTFEDNAMGWYRQAPGKERELVAAITSGGNTYYADSVKGRFTISRDNAMNTVYLQMNSLKPDDTAVYYCNAVPFYYDFDYWGQGTQVTVSS,low polyreactivity
6,QVQLVESGGGLVQAGGSLRLSCAASGSTFEFNDMGRYRPAPGKERELVASIRHSDGSRYYADSVKGRFTISRDNAKNTVYLQMIILKPEDTAVYDCNKAFQWSGGQVSYDYWGQGTQVTVSS,low polyreactivity
7,QVQLVESGGGLVQAGGSLRLSCAASGSTFEGNAMGWYRQAPGKERELVAAITSGGSTNYADSVKGRFTISRDNAKNNVYLQMNSLKPEDTAVYYCAADTVSFSILYDYWGQGTQVTVSS,low polyreactivity
8,QVQLVESGGGLVQAGGSLRLSCAASGSTFELYAMGWYRQAPGKERDFVAAITYDSTYYADSVKGRFTISRDNAKNTVYLQMNSLKPEDTAVYYCAAAYWHYYYGWDMYYWGQGTQVTVST,high polyreactivity
9,QVQLVESGGGLVQAGGSLRLSCAASGSTFENYAMGWSRQAPGKERELVAAISWSGGSTYYADSVKGRFTISRDNAKNTVYLQMNSLKPEDTAVYYCNAELYLRWGVTVTFDYWGQGTQVTVSS,low polyreactivity
10,QVQLVESGGGLVQAGGSLRLSCAASGSTFEPYARGWYRQAPGKERELVAAISSSGSTNYADSVKGRFTISRDNAKNTVYLQMNSLKPEDTAVYYCNARRQRSPIEVCERGYWGQGTQVTVSS,high polyreactivity
11,QVQLVESGGGLVQAGGSLRLSCAASGSTFERYAMGWYRQAPGKKWSWLPYADSVKGRFTISRDNAKNTVYLQMNSLKPEDTAVYYCNAERDSPPLNLDRGWEYDYWGQGTQVTVSS,low polyreactivity
12,QVQLVESGGGLVQAGGSLRLSCAASGSTFESNAMGWYRQAPGKERELVAAISYIDTSTYYADSVKGRFTISRDNAKNTVYLQMNSLKPEDTAVYYCATDVDWAYGYQYEYWGQGTQVTVSS,low polyreactivity
13,QVQLVESGGGLVQAGGSLRLSCAASGSTFETYAMGWYRQAPGKEMELVAAISKTGARTYYADSVKGRFTISRDNAKNTVYLQMNSLKPEDTAVYYCAAERKAHRKPHSRVDKYYYWGQGTQVTVSS,high polyreactivity
14,QVQLVESGGGLVQAGGSLRLSCAASGSTFEVYTMGWYRQAPGKARELVADITWSGGNTYYADSVKGRYTISRDNAKNTVYLQMNSLKPEDTAVYYCAVDGGEFSSYGYWGQGTQVTVSS,low polyreactivity
15,QVQLVESGGGLVQAGGSLRLSCAASGSTFEYNAMGWYIQAPGKERELVASSTNYADSVKGRFTISRDNANNTVYLQMNSLKPEDTAVYYCAREQCVNRNHDYWGQGTQVTVSS,low polyreactivity
16,QVQLVESGGGLVQAGGSLRLSCAASGSTFEYNAMGWYRQAPGKERELVASSTNYADSVKGRFTISRDNAKNTVYLQMNSLKPEDTAVYYCARVQGVNRNHDYWGQGTQVTVSS,low polyreactivity
17,QVQLVESGGGLVQAGGSLRLSCAASGSTFEYYAMGWYRQAPGKERELVATITLIAGSTYADSVKGRFTISRDNAKNTVYLQMNSLKPEDTAVYYCAADDGGYESPEFVYGGRGDYWGQGTQVTVSS,low polyreactivity
18,QVQLVESGGGLVQAGGSLRLSCAASGSTFEYYGMGWYRQAPGKERELVATITSGGSTNYADSVKGRFTISRDNAKNTVYLQMNSLKPEDTAVYYCAVDISNSLGGGFGYDYWGQGTQVTVSS,low polyreactivity
19,QVQLVESGGGLVQAGGSLRLSCAASGSTFFDYAMGWYRQAPGKEREFVAAISRSGDTNYADSVKGRFTISRDNAKNTVYLQMNSLKPEDTAVYYCAKDWAYRRHWVGFYYWGQGTQVTVSS,low polyreactivity
20,QVQLVESGGGLVQAGGSLRLSCAASGSTFFFNAMGWYRQAPGKERELVAAITGRSGSTYYADSVKGRFTISRDNAKNTVYLQMNSLKPEDTAVYYCAADFSPWRSDFDYWGQGTQVTVTS,low polyreactivity
